Numbered stars: 1 amine (or outer) side, 2 acyl side, 3 side chain; on linkers, the order of the positions; unused ones are H or OH. Square brackets hold non-standard residues; d marks the D form. Side chains are listed from the residue outwards. Ends that are not written are not given here. * marks the point of attachment. γGlu = O=C(O)[C@H](CCC(=O)[*:2])N[*:1]; Stearoyl = CCCCCCCCCCCCCCCCCC(=O)*; Palmitoyl = CCCCCCCCCCCCCCCC(=O)*; Aib = CC(C)(N)C(=O)O
T1: human GIP receptor (human, UniProt P48546 22-466)
T1 sequence (looked up): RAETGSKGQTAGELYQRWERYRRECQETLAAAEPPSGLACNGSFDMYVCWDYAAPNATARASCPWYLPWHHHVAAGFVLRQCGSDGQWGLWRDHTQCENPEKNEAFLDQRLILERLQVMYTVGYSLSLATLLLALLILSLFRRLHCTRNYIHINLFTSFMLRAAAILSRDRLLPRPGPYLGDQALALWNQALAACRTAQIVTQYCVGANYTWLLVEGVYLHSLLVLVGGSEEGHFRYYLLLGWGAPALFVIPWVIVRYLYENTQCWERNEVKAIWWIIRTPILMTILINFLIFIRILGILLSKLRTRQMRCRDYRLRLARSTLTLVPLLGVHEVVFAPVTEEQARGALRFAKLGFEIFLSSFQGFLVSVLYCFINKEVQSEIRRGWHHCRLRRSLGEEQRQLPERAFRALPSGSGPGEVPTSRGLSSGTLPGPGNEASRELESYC

B1: SEQ ID NO: 8 (peptide)
peptide: H[dS]HGTFTSDLSKQK([γGlu-Stearoyl])DEEAARLFIEWL[Aib]AGGPSSGAPPPS-NH2
modifications: N-terminus assumed
SMILES: CCCCCCCCCCCCCCCCCC(=O)N[C@@H](CCC(=O)NCCCC[C@H](NC(=O)[C@H](CCC(N)=O)NC(=O)[C@H](CCCCN)NC(=O)[C@H](CO)NC(=O)[C@H](CC(C)C)NC(=O)[C@H](CC(=O)O)NC(=O)[C@H](CO)NC(=O)[C@@H](NC(=O)[C@H](Cc1ccccc1)NC(=O)[C@@H](NC(=O)CNC(=O)[C@H](Cc1c[nH]cn1)NC(=O)[C@@H](CO)NC(=O)[C@@H](N)Cc1c[nH]cn1)[C@@H](C)O)[C@@H](C)O)C(=O)N[C@@H](CC(=O)O)C(=O)N[C@@H](CCC(=O)O)C(=O)N[C@@H](CCC(=O)O)C(=O)N[C@@H](C)C(=O)N[C@@H](C)C(=O)N[C@@H](CCCNC(=N)N)C(=O)N[C@@H](CC(C)C)C(=O)N[C@@H](Cc1ccccc1)C(=O)N[C@H](C(=O)N[C@@H](CCC(=O)O)C(=O)N[C@@H](Cc1c[nH]c2ccccc12)C(=O)N[C@@H](CC(C)C)C(=O)NC(C)(C)C(=O)N[C@@H](C)C(=O)NCC(=O)NCC(=O)N1CCC[C@H]1C(=O)N[C@@H](CO)C(=O)N[C@@H](CO)C(=O)NCC(=O)N[C@@H](C)C(=O)N1CCC[C@H]1C(=O)N1CCC[C@H]1C(=O)N1CCC[C@H]1C(=O)N[C@@H](CO)C(N)=O)[C@@H](C)CC)C(=O)O
B2: SEQ ID NO: 10 (peptide)
peptide: H[dS]QGTFTSDLSKQK([γGlu-Stearoyl])EEEAVRLFIEWL[Aib]AGGPSSGAPPPS-NH2
modifications: N-terminus assumed
SMILES: CCCCCCCCCCCCCCCCCC(=O)N[C@@H](CCC(=O)NCCCC[C@H](NC(=O)[C@H](CCC(N)=O)NC(=O)[C@H](CCCCN)NC(=O)[C@H](CO)NC(=O)[C@H](CC(C)C)NC(=O)[C@H](CC(=O)O)NC(=O)[C@H](CO)NC(=O)[C@@H](NC(=O)[C@H](Cc1ccccc1)NC(=O)[C@@H](NC(=O)CNC(=O)[C@H](CCC(N)=O)NC(=O)[C@@H](CO)NC(=O)[C@@H](N)Cc1c[nH]cn1)[C@@H](C)O)[C@@H](C)O)C(=O)N[C@@H](CCC(=O)O)C(=O)N[C@@H](CCC(=O)O)C(=O)N[C@@H](CCC(=O)O)C(=O)N[C@@H](C)C(=O)N[C@H](C(=O)N[C@@H](CCCNC(=N)N)C(=O)N[C@@H](CC(C)C)C(=O)N[C@@H](Cc1ccccc1)C(=O)N[C@H](C(=O)N[C@@H](CCC(=O)O)C(=O)N[C@@H](Cc1c[nH]c2ccccc12)C(=O)N[C@@H](CC(C)C)C(=O)NC(C)(C)C(=O)N[C@@H](C)C(=O)NCC(=O)NCC(=O)N1CCC[C@H]1C(=O)N[C@@H](CO)C(=O)N[C@@H](CO)C(=O)NCC(=O)N[C@@H](C)C(=O)N1CCC[C@H]1C(=O)N1CCC[C@H]1C(=O)N1CCC[C@H]1C(=O)N[C@@H](CO)C(N)=O)[C@@H](C)CC)C(C)C)C(=O)O
B3: SEQ ID NO: 12 (peptide)
peptide: HXQGTFTSDLSKQKDEEAARLFIEWLXAXGPSSGAPPPS
modifications: D-Ser at 2; Lys 14 side chain K(γE-γE-x53) = (S)-4-Carboxy-4-((S)-4-carboxy-4-hexadecanoylamino-butyrylamino)-butyryl-; Aib at 27; D-Ala at 29; C-terminal amide
B4: SEQ ID NO: 15 (peptide)
peptide: HXQGTFTSDLSKQKDEEAARLFIEWLXSGGPSSGAPPPS
modifications: D-Ser at 2; Lys 14 side chain K(γE-γE-x53) = (S)-4-Carboxy-4-((S)-4-carboxy-4-hexadecanoylamino-butyrylamino)-butyryl-; Aib at 27; C-terminal amide
B5: SEQ ID NO: 17 (peptide)
peptide: H[dS]QGTFTSDLSKQK([γGlu-γGlu-Palmitoyl])DEEAVRLFIEWL[Aib]AGGPSSGAPPPS-NH2
modifications: N-terminus assumed
SMILES: CCCCCCCCCCCCCCCC(=O)N[C@@H](CCC(=O)N[C@@H](CCC(=O)NCCCC[C@H](NC(=O)[C@H](CCC(N)=O)NC(=O)[C@H](CCCCN)NC(=O)[C@H](CO)NC(=O)[C@H](CC(C)C)NC(=O)[C@H](CC(=O)O)NC(=O)[C@H](CO)NC(=O)[C@@H](NC(=O)[C@H](Cc1ccccc1)NC(=O)[C@@H](NC(=O)CNC(=O)[C@H](CCC(N)=O)NC(=O)[C@@H](CO)NC(=O)[C@@H](N)Cc1c[nH]cn1)[C@@H](C)O)[C@@H](C)O)C(=O)N[C@@H](CC(=O)O)C(=O)N[C@@H](CCC(=O)O)C(=O)N[C@@H](CCC(=O)O)C(=O)N[C@@H](C)C(=O)N[C@H](C(=O)N[C@@H](CCCNC(=N)N)C(=O)N[C@@H](CC(C)C)C(=O)N[C@@H](Cc1ccccc1)C(=O)N[C@H](C(=O)N[C@@H](CCC(=O)O)C(=O)N[C@@H](Cc1c[nH]c2ccccc12)C(=O)N[C@@H](CC(C)C)C(=O)NC(C)(C)C(=O)N[C@@H](C)C(=O)NCC(=O)NCC(=O)N1CCC[C@H]1C(=O)N[C@@H](CO)C(=O)N[C@@H](CO)C(=O)NCC(=O)N[C@@H](C)C(=O)N1CCC[C@H]1C(=O)N1CCC[C@H]1C(=O)N1CCC[C@H]1C(=O)N[C@@H](CO)C(N)=O)[C@@H](C)CC)C(C)C)C(=O)O)C(=O)O
B6: SEQ ID NO: 18 (peptide)
peptide: HXQGTFTSDLSKQKDEEAARLFIEWLXSTGPSSGAPPPS
modifications: D-Ser at 2; Lys 14 side chain K(γE-γE-x53) = (S)-4-Carboxy-4-((S)-4-carboxy-4-hexadecanoylamino-butyrylamino)-butyryl-; Aib at 27; C-terminal amide
B7: SEQ ID NO: 19 (peptide)
peptide: HXQGTFTSDLSKQKDEEAARLFIEWLXKGGPSSGAPPPS
modifications: D-Ser at 2; Lys 14 side chain K(γE-γE-x53) = (S)-4-Carboxy-4-((S)-4-carboxy-4-hexadecanoylamino-butyrylamino)-butyryl-; Aib at 27; C-terminal amide
B8: SEQ ID NO: 20 (peptide)
peptide: HXQGTFTSDLSKQKDEEAARLFIEWLXAGGPSSGAPPPS
modifications: D-Ser at 2; Lys 14 side chain K(AEEAc-AEEAc- E-x53) = (2-{2-[2-(2-{2-[(4S)-4-Carboxy-4-hexadecanoylamino-butyrylamino]-ethoxy}-ethoxy)-acetylamino]-ethoxy}-ethoxy)-acetyl; Aib at 27; C-terminal amide
B9: SEQ ID NO: 21 (peptide)
peptide: HXQGTFTSDLSKQKDEEAARLFIEWLXAGGPSSGAPPPS
modifications: D-Ser at 2; Lys 14 side chain K(AEEAc-AEEAc- E-x70) = (2-{2-[2-(2-{2-[(4S)-4-Carboxy-4-octadecanoylamino-butyrylamino]-ethoxy}-ethoxy)-acetylamino]-ethoxy}-ethoxy)-acetyl; Aib at 27; C-terminal amide
B10: SEQ ID NO: 22 (peptide)
peptide: HXQGTFTSDLSKQKDEEAARLFIEWLXAGGPSSGAPPPS
modifications: D-Ser at 2; Lys 14 side chain K(AEEAc-AEEAc-AEEAc-x70) = [2-(2-{2-[2-(2-{2-[2-(2-Octadecanoylamino-ethoxy)-ethoxy]-acetylamino}-ethoxy)-ethoxy]-acetylamino}-ethoxy)-ethoxy]-acetyl-; Aib at 27; C-terminal amide
B11: SEQ ID NO: 24 (peptide)
peptide: HXQGTFTSDLSKQKDEEAARLFIEWLXKXGPSSGAPPPS
modifications: D-Ser at 2; Lys 14 side chain K(γE-γE-x53) = (S)-4-Carboxy-4-((S)-4-carboxy-4-hexadecanoylamino-butyrylamino)-butyryl-; Aib at 27; D-Ala at 29; C-terminal amide
B12: SEQ ID NO: 25 (peptide)
peptide: HXQGTFTSDLSKQKDEEAARLFIEWLXKXGPSSGAPPPS
modifications: D-Ser at 2; Lys 14 side chain K(γE-x70) = (S)-4-Carboxy-4-octadecanoylamino-butyryl-; Aib at 27; D-Ala at 29; C-terminal amide

Key:
Experiment in all cases: cell-based or functional assay
human GLP-1 receptor = human GLP-1 receptor (human, UniProt P43220 24-463)
human glucagon receptor = human glucagon receptor (human, UniProt P47871 26-477)
Chain of human glucagon receptor (P47871 26-477): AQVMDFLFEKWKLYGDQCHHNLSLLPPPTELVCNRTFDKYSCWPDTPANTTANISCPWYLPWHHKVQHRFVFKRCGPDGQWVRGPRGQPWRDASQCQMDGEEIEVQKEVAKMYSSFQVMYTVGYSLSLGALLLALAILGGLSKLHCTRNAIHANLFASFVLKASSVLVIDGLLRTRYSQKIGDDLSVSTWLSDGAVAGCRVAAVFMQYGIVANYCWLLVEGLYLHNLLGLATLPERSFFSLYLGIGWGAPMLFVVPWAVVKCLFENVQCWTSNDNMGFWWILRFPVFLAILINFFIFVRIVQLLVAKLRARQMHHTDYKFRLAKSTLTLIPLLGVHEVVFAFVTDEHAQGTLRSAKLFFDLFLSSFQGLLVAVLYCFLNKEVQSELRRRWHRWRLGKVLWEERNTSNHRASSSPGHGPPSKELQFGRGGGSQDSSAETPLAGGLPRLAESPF

human GIP receptor = target: T1, human GIP receptor

Binder | EC50 hGLP-1R (human GLP-1 receptor) | EC50 hGlucagon-R (human glucagon receptor) | EC50 hGIP-R (human GIP receptor)
B1 | 0.0018 nM | 0.0048 nM | 0.538 nM
B2 | 0.0065 nM | 0.14 nM | 0.982 nM
B3 | 0.0028 nM | 0.066 nM | 0.336 nM
B4 | 0.0018 nM | 0.0123 nM | 5.5 nM
B5 | 0.0024 nM | 0.0471 nM | 7.08 nM
B6 | 0.0036 nM | 0.0103 nM | 27.5 nM
B7 | 0.002 nM |  | 
B8 | 0.0043 nM | 0.0884 nM | 20.2 nM
B9 | 0.001 nM | 0.0091 nM | 2.45 nM
B10 | 0.0018 nM | 0.0064 nM | 4.16 nM
B11 | 0.0024 nM | 0.0765 nM | 14.1 nM
B12 | 0.0021 nM | 0.0432 nM | 8.32 nM
H[dS]HGTFTSDLSKQK([γGlu-γGlu-Palmitoyl])DEEAARLFIEWL[Aib]K[dA]GPSSGAPPPS-NH2 [SEQ ID NO: 26] | 0.002 nM | 0.0406 nM | 5.53 nM
